Assay results: PMC3326535

Tests used:
[1] = target: Human quinolinate phosphoribosyltransferase (hQPRTase) (human) (UniProt Q15274); assay: SEC
[2] = target: Human quinolinate phosphoribosyltransferase (hQPRTase) (human) (UniProt Q15274); assay: crystal structure

Substance: Human quinolinate phosphoribosyltransferase (hQPRTase) (from UniProt Q15274 1-297) (enzyme)
- stoichiometry N [1]: 6
- stoichiometry N [2]: 6
